From publication PMC5461540, “MOB1 Mediated Phospho-recognition in the Core Mammalian Hippo Pathway” (Molecular & Cellular Proteomics : MCP, 2017)

B1: MOB1A wild-type (natural protein)
chain: SFLFSSRSSKTFKPKKNIPEGSHQYELLKHAEATLGSGNLRQAVMLPEGEDLNEWIAVNTVDFFNQINMLYGTITEFCTEASCPVMSAGPRYEYHWADGTNIKKPIKCSAPKYIDYLMTWVQDQLDDETLFPSKIGVPFPKNFMSVAKTILKRLFRVYAHIYHQHFDSVMQLQEEAHLNTSFKHFIFFVQEFNLIDRRELAPLQELIEKLGSKDR
B2: MOB4 (tags cleaved) (natural protein)
chain: VMAEGTAVLRRNRPGTKAQDFYNWPDESFDEMDSTLAVQQYIQQNIRADCSNIDKILEPPEGQDEGVWKYEHLRQFCLELNGLAVKLQSECHPDTCTQMTATEQWIFLCAAHKTPKECPAIDYTRHTLDGAACLLNSNKYFPSRVSIKESSVAKLGSVCRRIYRIFSHAYFHHRQIFDEYENETFLCHRFTKFVMKYNLMSKDNLIVPILEEEVQNSVSGESEA

What was measured:
[1] = target: FITC labeled phosphorylated MST1 T353 peptide (human); experiment: fluorescence polarisation; 20 nM FITC-labelled peptide, MOB protein titrated (12 points, triplicate); 25 mM HEPES pH 7.5, 150 mM NaCl, 2 mM DTT, 1 mg/ml BSA; one site-specific binding fit
[2] = target: FITC labeled phosphorylated MST1 T367 peptide (human); experiment: as above

Row | Binder | Kd [1] | Kd [2]
1 | B1 | 280 nM | 0.68 µM
2 | B2 |  | 12.2 µM
